# Results taken from publication PMC3946335 (Small (Weinheim an der Bergstrasse, Germany), 2013).
# Legend:
# recombinant MMP-14 = recombinant MMP-14 (Homo sapiens, UniProt P50281); assay type: biochemical; details: ICT 10 mM, recombinant MMP-14 20 μg/mL, PBS buffer, 37 °C, identical conditions (2 hours); HPLC
# MMTV-PyMT tumor cells = assay: Caspase-3/7 assay; assay type: cell-based, murine; details: DEVD-AMC fluorescence, triplicate samples, printed as x:1
# MMTV-PyMT tumors [1] = assay: In vivo T2-weighted MR imaging of tumor accumulation; set-up: species or system mouse; details: single IV injection: ferumoxytol 0.5 mmol Fe/kg, CLIO-ICT 0.75 mmol Fe/kg, ICT 1.0 μmol/kg; up to 24 h; n=6
# [2] = Dynamic Light Scattering, nanoparticle size; assay type: physicochemical; details: nanoparticle size by DLS; PBS buffer, filtered 0.2 μm, diluted to 0.6 mM iron
# [3] = Laser Doppler Electrophoresis, zeta potential; assay type: physicochemical
# [4] = Number of ICT molecules per nanoparticle, from FITC absorption and emission; assay type: physicochemical; details: from attached fluorescein absorption at 492 nm and known TNP concentration
# [5] = r1 and r2 relaxivities by NMR; assay type: physicochemical; details: relaxivity; 1 – 60 mM iron; Varian Inova 300MHz (7 Tesla) NMR
# [6] = Iron oxide core size by TEM; assay type: physicochemical; details: after functionalization
# 4T1 cells = assay: Caspase-3/7 assay; assay type: cell-based, murine; details: low MMP-14
# human dermal fibroblasts = assay: Caspase-3/7 assay; assay type: cell-based; details: MMP-14 negative fibroblasts
# MMTV-PyMT tumors [7] = assay: Tumor histology; assay type: in vivo, mouse
# PyMT tumors = assay: Antitumor activity, daily tumor size; assay type: in vivo, mouse; details: calipers, daily for 7 days after single IV injection; n=6 mice
# [8] = tested on: normal organs (liver, spleen, kidney, brain, bone marrow and heart); assay: Toxicity in normal organs; assay type: in vivo, mouse; details: histology and caspase-3 activity
Substance,prodrug cleaved by MMP-14 (recombinant MMP-14),caspase expression ratio relative to the PBS control (MMTV-PyMT tumor cells),tumor enhancement on postcontrast T2-weighted MR images (MMTV-PyMT tumors [1]),D (DLS) [2],"Z (zeta potential) ([3]; Laser Doppler Electrophoresis, PBS buffer, filtered 0.2 μm, 0.6 mM iron)","charge of the nanoparticle ([3]; sign of zeta potential, laser Doppler electrophoresis)",# of ICT (ICT molecules per iron oxide nanoparticle) [4],r1 [5],iron oxide core size [6],response to treatment (caspase assay) (4T1 cells),cytotoxic effects (caspase assay) (human dermal fibroblasts),iron deposits in tumors (Prussian Blue) (MMTV-PyMT tumors [7]; 48 hours after intravenous administration),"tumor necrosis (pathologic evaluation, H&E) (MMTV-PyMT tumors [7]; MMTV-PyMT tumors)","Cy3-labeled cleaved Caspase-3 immunofluorescent staining of tumor cells (MMTV-PyMT tumors [7]; MMTV-PyMT tumors, 48 hours after administration)",change in tumor size (PyMT tumors),toxicity or cell death in normal tissues [8]
FITC-βAla-Cys-Arg-Ser-Cit-Gly-HPhe-Tyr-Leu-Tyr [ICT],89%,2.994,did not show any significant MR signal enhancement,–,–,–,–,–,–,–,–,–,–,–,–,–
FITC-βAla-Cys-Arg-Ser-Cit-Gly-HPhe-Tyr-Leu-Tyr [CLIO-ICT],–,2.883,negative (dark) enhancement,21±3 nm,+21±7 meV,positive,4.7±0.4,38.9 mM⁻¹ s⁻¹,6.5±0.7 nm,not responsive,did not show any significant cytotoxic effects,Iron deposits were noted,progressive increase in the severity of tumor necrosis,significant labeling of tumor cells,overall decrease in tumor size,no toxicity or cell death
